Laboratory results taken from patent US20230129812A1, “COMPOSITIONS AND METHODS FOR TREATING PULMONARY HYPERTENSION” (Acceleron Pharma Inc., priority 2020, published 2023).

Columns and labels:
[1] = molecular target: T1, activin B (Homo sapiens, UniProt P09529); assay: Similar Biacore binding assay (Example 1)
T1 sequence (P09529 293-407): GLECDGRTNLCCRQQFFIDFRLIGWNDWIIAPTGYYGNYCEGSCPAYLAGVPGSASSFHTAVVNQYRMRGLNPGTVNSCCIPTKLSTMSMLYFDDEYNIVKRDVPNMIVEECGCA

[2] = molecular target: T2, GDF8 (Homo sapiens, UniProt O14793); assay: Similar Biacore binding assay (Example 1)
T2 sequence (O14793 267-375): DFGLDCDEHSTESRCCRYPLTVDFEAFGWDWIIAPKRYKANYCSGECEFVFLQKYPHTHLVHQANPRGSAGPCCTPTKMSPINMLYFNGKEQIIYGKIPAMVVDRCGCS

[3] = molecular target: T3, BMP6 (Homo sapiens, UniProt P22004); assay: Similar Biacore binding assay (Example 1)
T3 sequence (P22004 375-513): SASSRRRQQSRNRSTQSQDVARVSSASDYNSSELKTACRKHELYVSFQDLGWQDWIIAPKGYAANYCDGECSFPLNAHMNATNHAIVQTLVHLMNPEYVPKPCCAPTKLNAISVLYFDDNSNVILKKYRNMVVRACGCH

[4] = molecular target: T4, BMP10 (Homo sapiens, UniProt O95393); assay: Similar Biacore binding assay (Example 1)
T4 sequence (O95393 317-424): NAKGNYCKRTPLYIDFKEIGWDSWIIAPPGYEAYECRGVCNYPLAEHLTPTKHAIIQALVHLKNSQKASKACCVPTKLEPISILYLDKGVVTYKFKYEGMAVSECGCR

[5] = Pharmacokinetic studies in rats; type: in vivo
Method: The ActRIIA-hFc was very stable in pharmacokinetic studies. Rats were dosed with 1 mg/kg, 3 mg/kg, or 10 mg/kg of ActRIIA-hFc protein, and plasma levels of the protein were measured at 24, 48, 72, 144 and 168 hours. In a separate study, rats were dosed at 1 mg/kg, 10 mg/kg, or 30 mg/kg.

[6] = Pharmacokinetics in cynomolgus monkeys; type: in vivo
[7] = molecular target: T4, BMP10; assay: Biacore ligand binding profile, ActRIIA-Fc:ALK4-Fc heterodimer vs homodimers, anti-Fc capture (Example 17, Table 14)
Method: (§1) A Biacore™-based binding assay was used to compare ligand binding selectivity of the ActRIIA-Fc:ALK4-Fc heterodimeric complex described above with that of ActRIIA-Fc and ALK4-Fc homodimeric complexes. The ActRIIA-Fc:ALK4-Fc heterodimer, ActRIIA-Fc homodimer, and ALK4-Fc homodimer were independently captured onto the system using an anti-Fc antibody. Ligands were injected and allowed to flow over the captured receptor protein. Results are summarized in Table 14 below, in which ligand off-rates (kd) most indicative of effective ligand traps are denoted in bold.

[8] = molecular target: T3, BMP6; assay: as above; details: ligand BMP6, Table 14
Method: as §1

[9] = molecular target: T5, BMP7 (Homo sapiens, UniProt P18075); assay: as above; details: ligand BMP7, Table 14
T5 sequence (P18075 293-431): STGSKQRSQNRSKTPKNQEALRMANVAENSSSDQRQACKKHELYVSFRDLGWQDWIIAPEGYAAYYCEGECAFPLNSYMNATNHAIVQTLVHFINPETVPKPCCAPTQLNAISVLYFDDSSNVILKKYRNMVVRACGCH
Method: as §1

[10] = molecular target: T6, BMP9 (Homo sapiens, UniProt Q9UK05); assay: as above; details: ligand BMP9, Table 14
T6 sequence (Q9UK05 320-429): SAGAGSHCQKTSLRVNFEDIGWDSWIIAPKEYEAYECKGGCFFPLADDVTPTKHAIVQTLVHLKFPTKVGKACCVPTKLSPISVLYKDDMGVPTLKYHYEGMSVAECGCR
Method: as §1

[11] = molecular target: T7, GDF11 (Homo sapiens, UniProt O95390); assay: as above; details: for ka / kd: ligand GDF11, Table 14
T7 sequence (O95390 299-407): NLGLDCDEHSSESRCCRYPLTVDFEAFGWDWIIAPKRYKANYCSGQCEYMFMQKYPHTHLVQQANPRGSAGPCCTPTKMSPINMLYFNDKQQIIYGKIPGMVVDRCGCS
Method: as §1

[12] = molecular target: T8, GDF3 (Homo sapiens, UniProt Q9NR23); assay: as above; details: ligand GDF3, Table 14
T8 sequence (Q9NR23 251-364): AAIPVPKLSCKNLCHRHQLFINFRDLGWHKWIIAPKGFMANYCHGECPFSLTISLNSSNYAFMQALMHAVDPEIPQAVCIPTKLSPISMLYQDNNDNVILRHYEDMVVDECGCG
Method: as §1

[13] = molecular target: T2, GDF8; assay: as above; details: ligand GDF8, Table 14
Method: as §1

[14] = molecular target: T9, activin A (Homo sapiens, UniProt P08476); assay: as above; details: for ka / kd: ligand Activin A, Table 14
T9 sequence (P08476 311-426): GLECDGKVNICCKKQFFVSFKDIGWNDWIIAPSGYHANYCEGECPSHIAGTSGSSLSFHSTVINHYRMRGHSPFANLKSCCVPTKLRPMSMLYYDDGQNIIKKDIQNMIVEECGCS
Method: as §1

[15] = molecular target: T10, activin AB (Homo sapiens, UniProt P08476+P09529); assay: as above; details: for ka / kd: ligand Activin AB, Table 14
T10 sequence (P08476 311-426): T9 sequence (P08476 311-426)
T10 sequence (P09529 293-407): T1 sequence (P09529 293-407)
Method: as §1

[16] = molecular target: T11, activin AC (Homo sapiens, UniProt P08476+P55103); assay: as above; details: for ka / kd: ligand Activin AC, Table 14
T11 sequence (P08476 311-426): T9 sequence (P08476 311-426)
T11 sequence (P55103 237-352): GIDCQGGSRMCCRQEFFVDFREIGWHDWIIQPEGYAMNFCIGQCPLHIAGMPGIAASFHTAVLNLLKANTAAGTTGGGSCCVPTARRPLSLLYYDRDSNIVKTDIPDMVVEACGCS
Method: as §1

[17] = molecular target: T1, activin B; assay: as above; details: for activin B binding: Example 17; for ka / kd: ligand Activin B, Table 14
Method: as §1

[18] = initial administration of 1 mg/kg
[19] = initial administration of 10 mg/kg

Row | Substance | kd ([7]; ligand BMP10, Table 14) | ka [8] [M⁻¹ s⁻¹] | kd [8] [s⁻¹] | ka [9] [M⁻¹ s⁻¹] | kd [9] [s⁻¹] | ka [11] [M⁻¹ s⁻¹] | kd [11] [s⁻¹] | ka [12] [M⁻¹ s⁻¹] | kd [12] [s⁻¹] | ka [13] [M⁻¹ s⁻¹] | kd [13] [s⁻¹] | ka [14] [M⁻¹ s⁻¹] | kd [14] [s⁻¹] | ka [15] [M⁻¹ s⁻¹] | kd [15] [s⁻¹] | ka [16] [M⁻¹ s⁻¹] | kd [16] [s⁻¹] | activin B binding [17] | ka [17] [M⁻¹ s⁻¹] | kd [17] [s⁻¹] | further results
1 | ActRIIA-hFc: extracellular domain of human ActRIIa fused to a human Fc domain with a minimal linker; homodimer | – | – | – | – | – | – | – | – | – | – | – | – | – | – | – | – | – | – | – | – | affinity for activin B [1]: high to moderate affinity; affinity for GDF8 [2]: high to moderate affinity; affinity for BMP6 [3]: high to moderate affinity; affinity for BMP10 [4]: high to moderate affinity; serum half-life [5]: 11 to 14 days; circulating levels of the drug after two weeks [5, 18]: 11 µg/mL; circulating levels of the drug after two weeks [5, 19]: 110 µg/mL; plasma half-life [6]: greater than 14 days; circulating levels of the drug [6, 18]: 25 µg/mL; circulating levels of the drug [6, 19]: 304 µg/mL; circulating levels of the drug ([6]; initial administration of 30 mg/kg): 1440 µg/mL
2 | ActRIIA-Fc:ALK4-Fc heterodimer: soluble heteromeric complex of extracellular domains of human ActRIIA and human ALK4, each separately fused to an Fc domain with a linker | Transient* | 5.4e+06 | 0.012 | 2e+07 | 0.072 | 3e+07 | 0.00065 | 4.9e+07 | 0.0048 | 1.8e+07 | 0.0028 | 7.4e+06 | 0.00024 | 1.8e+07 | 0.00023 | 3.2e+06 | 0.00054 | reduced affinity (albeit still within the high-affinity range) | 9.5e+06 | 0.00048 | BMP10 binding ([7]; Example 17): markedly reduced binding; KD [10]: No binding; GDF11 binding ([11]; Example 17): strong binding; activin A binding ([14]; Example 17): enhanced binding; activin AB binding ([15]; Example 17): strong binding; activin AC binding ([16]; Example 17): particularly enhanced binding
3 | ActRIIA-Fc homodimer: ActRIIA-Fc homodimeric complex used as comparator in Example 17 | 0.0025 s⁻¹ | 2.7e+08 | 0.022 | 8.9e+06 | 0.033 | 7.3e+07 | 0.00092 | 1.5e+06 | 0.0036 | 1.4e+06 | 0.0014 | 1.4e+07 | 0.00062 | 2.8e+07 | 0.00026 | 2.2e+07 | 0.0079 | highest affinity | 1.1e+07 | 0.00011 | ka ([7]; ligand BMP10, Table 14): 2.9e+07 M⁻¹ s⁻¹; kd [10]: Transient*
